Test results reported in US20220275088A1 (published 2022).
Values belong to the binder of their own block, whether it stands above or below them.

Legend:
[1] = biological target: Cyno PD1; assay: flow cytometry
[2] = biological target: human PD-1 on cells (transfected Expi293 cells, PHA-cultured T cells, cells of the Promega PD1-PDL1 bioassay, … (UniProt Q15116 25-288)); assay: flow cytometry
[3] = biological target: T1, soluble PD-1 (biotinylated PD-1; expi293 expressed soluble PD1-avi) (UniProt Q15116 25-170, biotinylated (Avidity's biotinylation kit, avi tag) where loaded on SA sensors or used to stain yeast); assay: ELISA; constant antigen coating
T1 sequence (Q15116 25-170): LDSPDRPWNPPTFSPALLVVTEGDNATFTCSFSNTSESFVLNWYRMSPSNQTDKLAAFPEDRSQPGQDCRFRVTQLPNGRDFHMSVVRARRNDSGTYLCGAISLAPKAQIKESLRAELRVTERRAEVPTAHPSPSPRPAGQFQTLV

[4] = biological target: T1, soluble PD-1 (biotinylated PD-1; …); assay: ELISA; variable antigen coating
[5] = biological target: T1, soluble PD-1 (biotinylated PD-1; …); assay: yeast display flow cytometry

Sequence of human PD-1 on cells (transfected Expi293 cells, PHA-cultured T cells, cells of the Promega PD1-PDL1 bioassay, … (Q15116 25-288): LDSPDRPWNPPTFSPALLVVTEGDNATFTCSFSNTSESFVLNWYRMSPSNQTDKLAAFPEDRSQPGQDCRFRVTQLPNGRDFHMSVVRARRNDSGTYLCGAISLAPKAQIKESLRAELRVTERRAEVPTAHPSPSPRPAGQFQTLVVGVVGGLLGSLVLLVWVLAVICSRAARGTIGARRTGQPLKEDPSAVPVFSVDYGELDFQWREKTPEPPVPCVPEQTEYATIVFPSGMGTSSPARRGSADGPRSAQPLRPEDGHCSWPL

B1: P4#B3 (Fc fusion)
VH: QVQLVQSGGGLVQPGRSLRLSCAASGFTFDDYAMHWVRQAPGKGLEWVSGISWNSGSIGYADSVKGRFTVSRDNAKNSLYLQMNSLRAEDTAVYYCASDYGDKYYYYGMDVWGKGTTVTVSS
VL: QPGLTQPPSASGTPGQRVTISCSGSSSNIGSNTVNWYQQFPGKAPKLLIFNDNQRPSGVPDRFSASKSGTSASLAISGLQSEDEADYYCAAWDGGLNGRGVFGGGTKLTVL
EC50 [1]: 0.072 µg/mL

B3: P4-B3 IgG1 wild type monomer (antibody, V domains shown)
VH: B1 VH
VL: QPGLTQPPSASGTPGQRVTISCSGSSSNIGSNTVNWYQQFPGKAPKLLIFNDNQRPSGVPDRFSASKSGTSASLAISGLQSEDEADYYCAAWDGGLNGRGVFGGGTKLTVLG
EC50 [3]: 0.0407 µg/mL
EC50 [4]: 0.514 µg/mL

Now from value to binder:

EC50 [2]: 0.097 µg/mL
B2: P4-B3 minibody (scFv-Fc) (Fc fusion)
VH: B1 VH
VL: B1 VL

EC50 [5]: 101 nM
B4: P4-B3 scFv (scFv, V domains shown)
VH: B1 VH
VL: B1 VL
